Source: the supplement of paper PMC6757056
± gives the standard deviation of the averaged measurements.

B1: library; a variant is named by its letters at N, in order (parent)
chain: GCUGUCACCGGUGUAUUACCCUAGUGGUCGACCGGUCUGAUGAGUCUNNNNNNAGACGAAACAGC

Experiments:
hypoxanthine [1] = variants of: B1; assay: normalized RNA/DNA level with ligand (relative to sTRSVctl = 100) (log10 (% of sTRSVctl)); ligand: hypoxanthine (xanthine aptamer); higher = less ribozyme self-cleavage, higher mRNA level; details: ligand concentration (+) RNA-Seq: 5 mM, HEK293T, reporter: mCherry (pCS4076), ligand present: yes
Procedure, shortened: (§1)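 RNA level was computed as RNA reads over DNA reads divided by a spiked-in non-cleaving sequence or by the top sequences, then scaled and log-transformed. Scaling was ×100 with log10, the top group was 25 sequences, and the threshold was ≥100 DNA reads. The reads came from HEK293T cells transfected at 4 µg per 6-well well with ribozyme switch library plasmids (mCherry, or eGFP in some ligand experiments). Total RNA was extracted with EDTA 72 h after transfection, with any ligand added 1 h before it.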

hypoxanthine [2] = variants of: B1; assay: normalized RNA/DNA level without ligand (relative to sTRSVctl = 100) (log10 (% of sTRSVctl)); ligand: hypoxanthine (xanthine aptamer); higher = less ribozyme self-cleavage, higher mRNA level; details: HEK293T, reporter: mCherry (pCS4076), ligand present: no
Procedure, shortened: as §1

Variant | normalized RNA/DNA level with ligand (log10) (hypoxanthine [1]) | normalized RNA/DNA level without ligand (log10) (hypoxanthine [2])
CAUUAC | 1.9 ± 0.046 | 1.82 ± 0.0041
UAGUGC | 1.95 ± 0.038 | 1.712 ± 0.014
ACACAU | 1.92 ± 0.03 | 1.723 ± 0.0032
ACACAA | 1.92 ± 0.065 | 1.78 ± 0.028
ACACAG | 1.84 ± 0.023 | 1.42 ± 0.054
ACACAC | 1.92 ± 0.023 | 1.74 ± 0.022
UAUGAU | 1.91 ± 0.022 | 1.7488 ± 0.0016
UAUGAG | 1.86 ± 0.046 | 1.54 ± 0.046
UAUGAA | 1.915 ± 0.013 | 1.73 ± 0.023
AAGUCC | 1.893 ± 0.016 | 1.81 ± 0.072
CAUGGA | 1.92 ± 0.05 | 1.7786 ± 0.00037
CAUGGC | 1.97 ± 0.044 | 1.87 ± 0.046
UAUUAG | 1.873 ± 0.0072 | 1.6759 ± 0.00016
AAGGUC | 1.95 ± 0.08 | 1.89 ± 0.016
GAUAGU | 1.88 ± 0.059 | 1.72 ± 0.034
GAUAGC | 1.87 ± 0.025 | 1.55 ± 0.097
AAUCAA | 1.89 ± 0.066 | 1.75 ± 0.068
AAUCAG | 1.838 ± 0.018 | 1.56 ± 0.041
CAUUGG | 1.91 ± 0.04 | 1.47 ± 0.068
CAUUGC | 1.94 ± 0.06 | 1.87 ± 0.053
CAUUGU | 1.94 ± 0.049 | 1.877 ± 0.0085
UCACAA | 1.92 ± 0.061 | 1.75 ± 0.019
UCACAG | 1.87 ± 0.033 | 1.56 ± 0.056
UCACAC | 1.94 ± 0.088 | 1.741 ± 0.015

Variant | normalized RNA/DNA level with ligand (log10) (hypoxanthine [1]) | normalized RNA/DNA level without ligand (log10) (hypoxanthine [2])
GAUAUU | 1.8969 ± 0.0013 | 1.84 ± 0.038
GAUAUC | 1.91 ± 0.03 | 1.908 ± 0.0029
UAUGCU | 1.92 ± 0.013 | 1.85 ± 0.03
UAUGCC | 1.935 ± 0.0058 | 1.87 ± 0.067
UAUGCA | 1.88 ± 0.022 | 1.83 ± 0.019
UAUGCG | 1.8828 ± 0.0017 | 1.67 ± 0.037
GCAAAA | 1.928 ± 0.015 | 1.79 ± 0.025
GCAAAG | 1.894 ± 0.0041 | 1.501 ± 0.0085
UAUGGA | 1.906 ± 0.012 | 1.65 ± 0.02
AAGUUC | 1.9 ± 0.052 | 1.787 ± 0.0052
GAUACU | 1.94 ± 0.069 | 1.87 ± 0.029
GAUACC | 1.95 ± 0.03 | 1.875 ± 0.016
UAUUGA | 1.901 ± 0.016 | 1.74 ± 0.021
UAUUGC | 1.94 ± 0.038 | 1.841 ± 0.0096
GAUCGA | 1.952 ± 0.0048 | 1.809 ± 0.0024
GAUCGC | 1.93 ± 0.023 | 1.8 ± 0.053
GAUCGU | 1.96 ± 0.11 | 1.838 ± 0.013
UAUAGG | 1.852 ± 0.017 | 1.43 ± 0.02
UAUAGC | 1.95 ± 0.009 | 1.83 ± 0.054
UAUAGA | 1.892 ± 0.0092 | 1.63 ± 0.019
AAUGCC | 1.942 ± 0.015 | 1.83 ± 0.039
AAUGCU | 1.92 ± 0.071 | 1.864 ± 0.011
CAUGUG | 1.93 ± 0.02 | 1.882 ± 0.012
CAUGUC | 1.91 ± 0.056 | 1.92 ± 0.042

Variant | normalized RNA/DNA level with ligand (log10) (hypoxanthine [1]) | normalized RNA/DNA level without ligand (log10) (hypoxanthine [2])
CAUGUA | 1.91 ± 0.011 | 1.771 ± 0.0036
CAUGUU | 1.94 ± 0.026 | 1.879 ± 0.0072
GCAAUU | 1.952 ± 0.011 | 1.858 ± 0.0079
CAUCUA | 2.01 ± 0.12 | 1.85 ± 0.055
CAUCUU | 2 ± 0.027 | 1.93 ± 0.047
CAUCUG | 1.97 ± 0.022 | 1.92 ± 0.081
CAUCUC | 1.957 ± 0.0025 | 2.01 ± 0.021
CAGGGU | 1.884 ± 0.017 | 1.75 ± 0.021
CAGGGA | 1.95 ± 0.04 | 1.781 ± 0.014
CAGGGC | 1.99 ± 0.056 | 1.84 ± 0.052
AAUUAU | 1.92 ± 0.026 | 1.82 ± 0.022
CAUAUG | 1.94 ± 0.016 | 1.86 ± 0.042
CAUAUU | 1.91 ± 0.044 | 1.8 ± 0.041
CAUAUC | 1.95 ± 0.0088 | 1.9 ± 0.012
CAUAUA | 1.9 ± 0.027 | 1.73 ± 0.028
UAGUAU | 1.93 ± 0.041 | 1.761 ± 0.015
UAGUAC | 1.94 ± 0.031 | 1.81 ± 0.035
UAGUAA | 1.939 ± 0.016 | 1.77 ± 0.022
CCAACG | 1.924 ± 0.0039 | 1.859 ± 0.012
CCAACA | 1.93 ± 0.022 | 1.883 ± 0.017
AAUCUU | 1.94 ± 0.029 | 1.914 ± 0.012
AAUCUC | 2 ± 0.062 | 2.023 ± 0.02
AAUGGC | 1.929 ± 0.0094 | 1.79 ± 0.02
AAUGGU | 1.925 ± 0.016 | 1.592 ± 0.0071

Variant | normalized RNA/DNA level with ligand (log10) (hypoxanthine [1]) | normalized RNA/DNA level without ligand (log10) (hypoxanthine [2])
AAUCGA | 1.92 ± 0.076 | 1.63 ± 0.034
AAUCGU | 1.94 ± 0.023 | 1.69 ± 0.022
AAUCGC | 1.92 ± 0.03 | 1.82 ± 0.053
UCAAUU | 1.96 ± 0.0097 | 1.89 ± 0.023
UCAAUG | 1.85 ± 0.035 | 1.702 ± 0.0043
UCAAUA | 1.91 ± 0.049 | 1.76 ± 0.021
AAUACU | 1.8942 ± 0.0003 | 1.833 ± 0.0049
GAGUCG | 1.84 ± 0.019 | 1.38 ± 0.02
GAGUCC | 2.015 ± 0.017 | 1.853 ± 0.013
GAGUCU | 1.96 ± 0.026 | 1.84 ± 0.01
CAGUCG | 1.98 ± 0.025 | 1.888 ± 0.0091
CAGUCC | 1.984 ± 0.0083 | 1.88 ± 0.024
CAGUCA | 1.93 ± 0.025 | 1.6768 ± 0.0013
CAGUCU | 1.98 ± 0.005 | 1.792 ± 0.016
GCACAC | 1.9 ± 0.042 | 1.63 ± 0.057
GCACAU | 1.96 ± 0.033 | 1.76 ± 0.037
UCAACC | 1.978 ± 0.0062 | 1.95 ± 0.06
UCAACU | 1.962 ± 0.016 | 1.883 ± 0.0061
UAUACC | 1.95 ± 0.12 | 1.88 ± 0.014
UAUACG | 1.83 ± 0.042 | 1.686 ± 0.008
GAUCAG | 1.92 ± 0.05 | 1.72 ± 0.016
ACAAGU | 1.88 ± 0.032 | 1.564 ± 0.013
UAGGUA | 1.96 ± 0.033 | 1.84 ± 0.036
UAGGUU | 1.961 ± 0.0077 | 1.85 ± 0.015

Variant | normalized RNA/DNA level with ligand (log10) (hypoxanthine [1]) | normalized RNA/DNA level without ligand (log10) (hypoxanthine [2])
UAUUCG | 1.929 ± 0.0088 | 1.74 ± 0.072
UAUUCU | 1.96 ± 0.079 | 1.88 ± 0.035
UAUUCC | 1.95 ± 0.023 | 1.852 ± 0.012
CAUUUU | 1.973 ± 0.0049 | 1.804 ± 0.0085
CAUUUG | 1.98 ± 0.1 | 1.9 ± 0.049
UAUGUA | 1.906 ± 0.0084 | 1.837 ± 0.0025
UAUGUU | 1.94 ± 0.06 | 1.85 ± 0.049
UAUCGU | 1.9 ± 0.052 | 1.7 ± 0.091
UAUCGA | 1.92 ± 0.035 | 1.76 ± 0.046
GAGUUA | 1.891 ± 0.0028 | 1.64 ± 0.056
GAGUUC | 1.92 ± 0.093 | 1.86 ± 0.053
CCACAU | 1.92 ± 0.11 | 1.79 ± 0.049
CCACAA | 1.9686 ± 0.0014 | 1.8 ± 0.033
CCACAC | 1.93 ± 0.067 | 1.777 ± 0.015
CCACAG | 1.92 ± 0.04 | 1.66 ± 0.059
CAUACU | 1.92 ± 0.04 | 1.83 ± 0.052
CAUACC | 1.93 ± 0.023 | 1.891 ± 0.016
CAUACA | 1.9 ± 0.069 | 1.78 ± 0.051
CAUAAG | 1.92 ± 0.016 | 1.71 ± 0.019
CAUAAC | 1.9194 ± 0.0019 | 1.83 ± 0.056
